Experimental data published in patent publication US20140294765A1 (COMPUGEN, published 2014).

Legend:
[1] = target: T1, Peptide 2, amino acid residues 118-135 of SEQ ID NO:10 (human); experiment: ELISA, hybridoma culture supernatant
T1 construct: Immunisation peptide from the ECD of human LSR
T1 peptide: CQDSVRTVRVVATKQGNA
Procedure: FACS analysis was subsequently carried out with purified monoclonal Ab, 8C8, using a goat anti mouse-Alexa Fluor 488 (Invitrogen cat# A10667) as secondary Ab for detection.
Culture supernatants of the hybridoma clones were analyzed by ELISA.

[2] = target: T2, mouse WT LSR protein expressed in stably transfected HEK293 or CHO-K1 cells (mouse, UniProt Q99KG5 36-594); experiment: flow cytometry on stably transfected CHO-K1 cells, 8C8 at 1, 2.5, 5 and 10 ug/ml, Geo Mean (FL1)
T2 construct: Made with a C-terminal Flag tag (pcDNA3.1); Lysate for the Western blot; also called WT-Mouse LSR-flag protein
T2 sequence: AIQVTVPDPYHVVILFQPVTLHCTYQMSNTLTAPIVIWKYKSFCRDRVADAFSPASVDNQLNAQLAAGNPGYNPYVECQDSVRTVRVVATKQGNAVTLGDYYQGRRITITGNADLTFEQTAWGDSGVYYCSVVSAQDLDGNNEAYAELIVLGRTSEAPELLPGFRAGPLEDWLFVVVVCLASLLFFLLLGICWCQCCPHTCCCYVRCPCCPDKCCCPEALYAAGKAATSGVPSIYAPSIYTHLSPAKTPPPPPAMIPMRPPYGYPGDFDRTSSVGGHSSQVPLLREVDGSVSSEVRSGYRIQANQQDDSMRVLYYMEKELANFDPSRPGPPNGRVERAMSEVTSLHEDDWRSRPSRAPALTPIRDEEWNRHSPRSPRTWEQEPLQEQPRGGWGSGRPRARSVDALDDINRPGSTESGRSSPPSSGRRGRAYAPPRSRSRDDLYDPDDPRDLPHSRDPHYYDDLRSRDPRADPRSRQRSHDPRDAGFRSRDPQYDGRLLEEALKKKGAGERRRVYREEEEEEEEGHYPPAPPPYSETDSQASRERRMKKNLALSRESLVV

B1: 8C8, mouse IgG2a monoclonal antibody against human LSR (antibody, V domains shown)
VH: DVKLVESGGGLVKLGGSLKLSCAASGFTFSSYYMSWVRQTPEKRLELVAAINSNGGSTYYPDTVKGRFTISRDNAKNTLYLQMSSLKSEDTALYYCARHDYYGSSFAMDYWGQGTSVTVSS
VL: DIQMTQTTSSLSASLGDRVTISCRASQDISNYLNWYQQKPDGTVKLLIYYTSRLHSGVPSRFSGSGSGTDYSLTISNLEQEDIATYFCQQDSKHPWTFGGGTKLEIK
notes: also called 8C8 mAb; mAb 8C8
binding result [1]: no binding
binding result [2]: binds
